± gives the standard deviation of the averaged measurements.
Assay: total protein half-life in vivo (active degradation + dilution); higher = more stable protein
[1] = E. coli NCM3722 delta-clpP delta-lon delta-hslV, growth: N-lim chemostat, doubling time 6 h
[2] = E. coli NCM3722 delta-clpP, growth: N-lim chemostat, doubling time 6 h
[3] = E. coli NCM3722 delta-lon, growth: N-lim chemostat, doubling time 6 h
[4] = wild type E. coli NCM3722, growth: C-lim chemostat, doubling time 6 h
[5] = wild type E. coli NCM3722, growth: N-lim chemostat, doubling time 6 h
[6] = wild type E. coli NCM3722, growth: P-lim chemostat, doubling time 6 h
[7] = wild type E. coli NCM3722, growth: P-lim chemostat, doubling time 12 h
[8] = E. coli NCM3722 delta-hslV, growth: N-lim chemostat, doubling time 6 h
[9] = E. coli NCM3722 delta-smpB, growth: N-lim chemostat, doubling time 6 h
[10] = wild type E. coli NCM3722, growth: C-lim chemostat, doubling time 3 h
[11] = wild type E. coli NCM3722, growth: C-lim chemostat, doubling time 12 h
[12] = wild type E. coli NCM3722, growth: N-lim chemostat, doubling time 12 h

| Sequence | total protein half-life in vivo [1] [h] | total protein half-life in vivo [2] [h] | total protein half-life in vivo [3] [h] | total protein half-life in vivo [4] [h] | total protein half-life in vivo [5] [h] | total protein half-life in vivo [6] [h] | total protein half-life in vivo [7] [h] | total protein half-life in vivo [8] [h] | total protein half-life in vivo [9] [h] | total protein half-life in vivo [10] [h] | total protein half-life in vivo [11] [h] | total protein half-life in vivo [12] [h] |
| --- | --- | --- | --- | --- | --- | --- | --- | --- | --- | --- | --- | --- |
| MFEYLPELMKGLHTSLTLTVASLIVALILALIFTIILTLKTPVLVWLVRGYITLFTGTPLLVQIFLIYYGPGQFPTLQEYPALWHLLSEPWLCALIALSLNSAAYTTQLFYGAIRAIPEGQWQSCSALGMSKKDTLAILLPYAFKRSLSSYSNEVVLVFKSTSLAYTITLMEVMGYSQLLYGRTYDVMVFGAAGIIYLVVNGLLTLMMRLIERKALAFERRN [P0AE30] | 5.31 | 6.27 | 5.01 | 5.55 | 5.22 | 6.32 | 11 | – | – | – | – | – |
| MFHCPLCQHAAHARTSRYITDTTKERYHQCQNVNCSATFITYESVQRYIVKPGEVHVVRPHPLPSGQQIMWM | 5.58 ± 1.3 | – | – | – | – | – | – | – | – | – | – | – |
| MFHRLWTLIRKELQSLLREPQTRAILILPVLIQVILFPFAATLEVTNATIAIYDEDNGEHSVELTQRFARASAFTHVLLLKSPQEIRPTIDTQKALLLVRFPADFSRKLDTFQTAPLQLILDGRNSNSAQIAANYLQQIVKNYQQELLEGKPKPNNSELVVRNWYNPNLDYKWFVVPSLIAMITTIGVMIVTSLSVAREREQGTLDQLLVSPLTTWQIFIGKAVPALIVATFQATIVLAIGIWAYQIPFAGSLALFYFTMVIYGLSLVGFGLLISSLCSTQQQAFIGVFVFMMPAILLSGYVSPVENMPVWLQNLTWINPIRHFTDITKQIYLKDASLDIVWNSLWPLLVITATTGSAAYAMFRRKVM [P0AFP9] | – | 6.75 ± 1.4 | 7.11 | 6.05 ± 0.27 | 6.33 ± 0.16 | 6.38 | – | > 8 | 5.25 ± 0.36 | 3.51 | 12.97 ± 0.071 | 12.1 ± 1.1 |
| MFIGFDYGTANCSVAVMRDGKPHLLKMENDSTLLPSMLCAPTREAVSEWLYRHHDVPADDDETQALLRRAIRYNREEDIDVTAKSVQFGLSSLAQYIDDPEEVWFVKSPKSFLGASGLKPQQVALFEDLVCAMMLHIRQQAQAQLPEAITQAVIGRPINFQGLGGDEANTQAQGILERAAKRAGFRDVVFQYEPVAAGLDYEATLQEEKRVLVVDIGGGTTDCSLLLMGPQWRSRLDREASLLGHSGCRIGGNDLDIALAFKNLMPLLGMGGETEKGIALPILPWWNAVAINDVPAQSDFYSSANGRLLNDLVRDAREPEKVALLQKVWRQRLSYRLVRSAEECKIALSSVAETRASLPFISNELATLISQRGLESALSQPLTRILEQVQLALDNAQEKPDVIYLTGGSARSPLIKKALAEQLPGIPIAGGDDFGSVTAGLARWAEVVFR | 4.24 ± 0.21 | 3.46 ± 0.21 | 3.061 ± 0.019 | 5.13 ± 0.5 | 3.1 | 4.93 ± 0.058 | 7.96 ± 0.29 | 3.42 ± 0.99 | 2.69 ± 0.13 | 2.8 ± 0.11 | 9.46 ± 2.2 | 3.87 |
| MFIRAPNFGRKLLLTCIVAGVMIAILVSCLQFLVAWHKHEVKYDTLITDVQKYLDTYFADLKSTTDRLQPLTLDTCQQANPELTARAAFSMNVRTFVLVKDKKTFCSSATGEMDIPLNELIPALDINKNVDMAILPGTPMVPNKPAIVIWYRNPLLKNSGVFAALNLNLTPSLFYSSRQEDYDGVALIIGNTALSTFSSRLMNVNELTDMPVRETKIAGIPLTVRLYADDWTWNDVWYAFLLGGMSGTVVGLLCYYLMSVRMRPGREIMTAIKREQFYVAYQPVVDTQALRVTGLEVLLRWRHPVAGEIPPDAFINFAESQKMIVPLTQHLFELIARDAAELEKVLPVGVKFGINIAPDHLHSESFKADIQKLLTSLPAHHFQIVLEITERDMLKEQEATQLFAWLHSVGVEIAIDDFGTGHSALIYLERFTLDYLKIDRGFINAIGTETITSPVLDAVLTLAKRLNMLTVAEGVETPEQARWLSERGVNFMQGYWISRPLPLDDFVRWLKKPYTPQW | 6.645 ± 0.021 | 6.81 ± 0.3 | 6.55 ± 1 | 5.92 ± 1.2 | 5.91 ± 0.13 | 5.7999 ± 0.0026 | 10.4 ± 0.3 | 6.17 ± 0.16 | 5.84 ± 0.17 | – | 10.5 ± 0.13 | 11.2 ± 0.95 |
| MFKFLVLTLGIISCQAYAEDTVIVNDHDISAIKDCWQKNSDDDTDVNVIKSCLRQEYNLVDAQLNKAYGEAYRYIEQVPRTGVKKPDTEQLNLLKKSQRAWLDFRDKECELILSNEDVQDLSDPYSESEWLSCMIIQTNTRTRQLQLYRNSEDFYPSPLTRG | – | – | – | – | – | – | – | 6.44 | – | – | – | – |
| MFKKGLLALALVFSLPVFAAEHWIDVRVPEQYQQEHVQGAINIPLKEVKERIATAVPDKNDTVKVYCNAGRQSGQAKEILSEMGYTHVENAGGLKDIAMPKVKG | – | – | 2.7 ± 0.26 | 2.89 | – | – | 3.19 | – | 2.61 | 1.97 ± 0.051 | 3.42 ± 0.39 | – |
| MFKPELLSPAGTLKNMRYAFAYGADAVYAGQPRYSLRVRNNEFNHENLQLGINEAHALGKKFYVVVNIAPHNAKLKTFIRDLKPVVEMGPDALIMSDPGLIMLVREHFPEMPIHLSVQANAVNWATVKFWQQMGLTRVILSRELSLEEIEEIRNQVPDMEIEIFVHGALCMAYSGRCLLSGYINKRDPNQGTCTNACRWEYNVQEGKEDDVGNIVHKYEPIPVQNVEPTLGIGAPTDKVFMIEEAQRPGEYMTAFEDEHGTYIMNSKDLRAIAHVERLTKMGVHSLKIEGRTKSFYYCARTAQVYRKAIDDAAAGKPFDTSLLETLEGLAHRGYTEGFLRRHTHDDYQNYEYGYSVSDRQQFVGEFTGERKGDLAAVAVKNKFSVGDSLELMTPQGNINFTLEHMENAKGEAMPIAPGDGYTVWLPVPQDLELNYALLMRNFSGETTRNPHGK | 2.98 ± 0.19 | 1.94 ± 0.45 | 2.01 ± 0.14 | 3.68 ± 0.062 | 1.91 ± 0.17 | 4.1 ± 0.069 | 7.89 ± 0.33 | 1.96 ± 0.29 | 1.77 ± 0.092 | 2.77 ± 0.029 | 5.83 ± 0.49 | 2.5 ± 0.0042 |
| MFKRRYVTLLPLFVLLAACSSKPKPTETDTTTGTPSGGFLLEPQHNVMQMGGDFANNPNAQQFIDKMVNKHGFDRQQLQEILSQAKRLDSVLRLMDNQAPTTSVKPPSGPNGAWLRYRKKFITPDNVQNGVVFWNQYEDALNRAWQVYGVPPEIIVGIIGVETRWGRVMGKTRILDALATLSFNYPRRAEYFSGELETFLLMARDEQDDPLNLKGSFAGAMGYGQFMPSSYKQYAVDFSGDGHINLWDPVDAIGSVANYFKAHGWVKGDQVAVMANGQAPGLPNGFKTKYSISQLAAAGLTPQQPLGNHQQASLLRLDVGTGYQYWYGLPNFYTITRYNHSTHYAMAVWQLGQAVALARVQ | 5.38 ± 0.079 | 5.65 ± 2 | – | – | 5.55 ± 0.14 | 5.1 | > 16 | – | 5.5 ± 0.089 | 3.61 | – | 10.8 |

Reference: the supplement of paper PMC11246515
